Data taken from US20120276102A1 (Pfizer, published 2012).
Each block holds one binder with its values, some of them ahead of it.

How the values were obtained:
human IL-2Rβ = target: T1, human IL-2Rβ (human, UniProt P14784 27-239); assay: SPR, Ab captured
T1 sequence (looked up): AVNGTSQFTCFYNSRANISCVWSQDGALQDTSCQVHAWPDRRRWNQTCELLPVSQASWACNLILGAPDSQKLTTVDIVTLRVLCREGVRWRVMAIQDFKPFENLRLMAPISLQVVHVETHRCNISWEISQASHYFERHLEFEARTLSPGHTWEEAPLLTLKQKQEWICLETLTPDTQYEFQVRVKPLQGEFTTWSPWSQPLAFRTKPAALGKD
Method: (§1) The specificity of binding of a subset of transiently expressed anti-IL-21R binding proteins (here antibodies) was tested on a BIACORE™ 2000 surface plasmon resonance instrument. Anti-human-IgG, anti-murine immunoglobulin antibodies, and murine IL-21R-H/F were immobilized onto a research-grade carboxymethyl-dextran chip (CM5) using standard amine coupling. The sensor chip surface was activated with EDC/NHS for 7 min at a flow rate of 20 μl/min. The first flow cell was used as reference surface to correct for bulk refractive index, matrix effects, and nonspecific binding. […] Remaining activated groups were blocked with 1.0 M ethanolamine (pH 8.0). The molecular weights of the anti-human IgG and the anti-murine IgG were both 150 kD, and the molecular weight of the IL-21R monomer was 27 kD.
(§2) Conditioned media containing anti-IL-21R antibodies and antibody controls (murine anti-human IL-2Rβ and murine anti-human IL-4R(R&D Systems, Minneapolis, Minn.); human anti-human IL-13 (Wyeth, Cambridge, Mass.)) were diluted in HBS/EP buffer supplemented with 0.2% bovine serum and injected onto all four flow cells of the BIACORE™ chip, capturing 500-700 (RU) of antibody on the species-appropriate capture antibody. Following a 5 sec washing period, 50 nM solutions of a positive control protein (murine IL-21R-H/F), two human proteins related to IL-21R (human IL-2Rβ and human sIL-4R(R&D Systems)), or an unrelated His/FLAG-tagged protein (human IL-13-H/F) were injected over the captured antibodies on the chip. The association and dissociation phases were monitored for 120 and 180 sec, respectively, followed by two 5 μl injections of glycine (pH 1.5) to regenerate a fully active capturing surface. All binding experiments were done at 25° C. in HBS/EP buffer. Blank and buffer effects were subtracted for each sensorgram using double referencing.

human soluble IL-4R = target: T2, human soluble IL-4R (human, UniProt P24394 26-232, limits assumed); assay: SPR, Ab captured
T2 construct: also called human sIL-4R
Method: as §1, §2

human IL-13-His/FLAG = target: T3, human IL-13-His/FLAG (human, UniProt P35225 35-146, limits assumed); assay: SPR, Ab captured
T3 construct: Unrelated His/FLAG-tagged control; also called human IL-13-H/F
Method: as §1, §2

[1] = target: T4, human IL-21R expressed on cells (human, UniProt Q9HBE5 20-538); assay: cell ELISA, CHO cells
T4 construct: also called human IL-21R-BaF3; human IL-21R-TF1

[2] = target: T5, rat IL-21R expressed on cells (rat); assay: cell ELISA, CHO cells
T5 construct: whole, on cells

[3] = target: T6, cynomolgus monkey IL-21R expressed on cells (cynomolgus monkey, UniProt G7Q0S8 41-559); assay: cell ELISA, CHO cells
T6 construct: whole, on cells

[4] = target: T7, human gamma (γ) common chain expressed on CHO cells (human, UniProt P31785 23-369); assay: cell ELISA, CHO cells
T7 construct: whole, on cells; Control protein; also called human IL-2R-γ common subunit; human γ-common
T7 sequence (looked up): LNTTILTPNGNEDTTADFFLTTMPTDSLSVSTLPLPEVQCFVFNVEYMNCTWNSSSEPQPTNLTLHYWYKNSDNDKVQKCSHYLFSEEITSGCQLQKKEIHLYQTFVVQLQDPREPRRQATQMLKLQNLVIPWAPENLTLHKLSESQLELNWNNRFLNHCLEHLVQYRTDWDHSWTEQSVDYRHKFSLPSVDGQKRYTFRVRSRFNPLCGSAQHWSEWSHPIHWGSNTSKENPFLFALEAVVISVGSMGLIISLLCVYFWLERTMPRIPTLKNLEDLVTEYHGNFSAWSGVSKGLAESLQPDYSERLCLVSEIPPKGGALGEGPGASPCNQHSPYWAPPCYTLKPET

[5] = target: T4, human IL-21R expressed on cells; assay: cell-based or functional assay
[6] = target: murine IL-21R expressed on cells (murine, UniProt Q9JHX3 20-529); assay: cell-based or functional assay
[7] = target: T5, rat IL-21R expressed on cells; assay: cell-based ELISA on CHO cells transiently expressing rat IL-21R; HRP anti-human IgG, A450
Method: (§3) FIG. 6(a-l) depicts the binding of 21 anti-IL-21R IgGs to CHO cells transiently expressing human IL-21R (FIGS. 6a-c), rat IL-21R (FIGS. 6d-f), cynomolgus monkey IL-21R (FIGS. 6g-i), and human gamma common chain (FIGS. 6j-1). CHO cells were transiently transfected with IL-21R or the control gamma common chain, and binding was detected with HRP-conjugated anti-human IgG in a cell-based ELISA.
(§4) A subset of binding proteins was tested for binding to rat, cynomolgus monkey, human IL-21R, or human IL-2R-γ common subunit expressed transiently on the surfaces of CHO-PA-Dukx cells. Cells were transfected 48 hr prior to the assay. On the day of the assay, cells were washed gently 5× in PBS containing 0.9 mM CaCl₂ and 0.45 mM MgCl₂ (PBS/CaMg) on an automated plate washer (Titertek, Huntsville, Ala.), and blocked for 1 hr at RT in PBS/CaMg/5% nonfat dry milk. Conditioned media from transiently expressed anti-IL-21R IgGs were serially diluted in blocking buffer and added to the cells in the blocked plates for 1 hr at RT. Cells were washed 5× with PBS/CaMg and then incubated with horseradish peroxidase-conjugated anti-human IgG for 1 hr at RT. Cells were then washed 10× in PBS/CaMg and all of the wash buffer was removed. Cells were incubated with 100 μl TMB until the color reaction reached saturation, stopped with 100 μl of 0.18 M H₂SO₄, and read at A450 on a Perkin Elmer ENVISION™ plate reader.

[8] = target: T4, human IL-21R expressed on cells; assay: cell-based ELISA on CHO cells transiently expressing human IL-21R; HRP anti-human IgG, A450
Method: as §3, §4

[9] = target: T6, cynomolgus monkey IL-21R expressed on …; assay: cell-based ELISA on CHO cells transiently expressing cynomolgus monkey IL-21R; HRP anti-human IgG, A450
[10] = target: T7, human gamma (γ) common chain expressed …; assay: cell-based ELISA on CHO cells transiently expressing human gamma common chain; HRP anti-human IgG, A450
Method: as §3, §4

[11] = target: T5, rat IL-21R expressed on cells; assay: cell-based or functional assay
murine IL-21 = murine IL-21 (murine, UniProt Q9ES17 18-146); assay: cell-based or functional assay
[12] = target: T8, murine IL-21R extracellular domain His-Flag fusion protein (murine, UniProt Q9JHX3 20-237); assay: competition ELISA: scFv mixed with biotinylated murine IL-21R-H/F, added to plate-bound 18A5 IgG (competitor); captured receptor detected with HRP-streptavidin, A450
T8 construct: Biotinylated in the ELISAs; also called mIL-21R-H/F; murine IL-21R-H/F
Method: Blocked plates were washed 3× with PBS, and 50 μl/well of scFv/IL-21R mixtures were transferred to the appropriate plates and incubated for 1 hr at RT. Plates were washed 5× with PBS prior to the addition of a 1:6000 dilution of horseradish peroxidase-conjugated streptavidin (Southern Biotech, Birmingham, Ala.) secondary antibody to detect bound biotinylated mIL-21R-H/F. Plates were then incubated for 1 hr at RT and washed 7× with PBS. Signal was developed using 3,3′,5,5′-tetramethylbenzidine (TMB), the reaction stopped with H₂SO₄, and the absorbance read at 450 nm on an ENVISION™ plate reader (Perkin Elmer).

[13] = target: T9, human complement component C1q (human, UniProt P02745 23-245; P02746 28-253; P02747 29-245); assay: C1q ELISA, antibody coated at 5 µg/ml, human serum 1:50
T9 construct: Native C1q in diluted human serum
Method: In order to determine whether cell-surface binding by anti-IL-21R antibodies is likely to lead to complement-dependent cytotoxicity (CDC), the antibodies were tested for their ability to bind to the complement component C1q in an ELISA. […] Diluted antibodies (100 μl) were coated onto a COSTAR® high-binding ELISA plate (Corning Life Sciences, Lowell, Mass.) overnight at 4° C. Plates were washed 3× with PBS/Tween-20 and blocked with 200 μl of blocking buffer (0.1 M NaPO₄, 0.1 M NaCl, 0.1% gelatin, 0.01% Tween) for 1 hr at RT. Human serum previously determined to contain C1q (Quidel, San Diego, Calif.) was diluted 1:50 in PBS. After 1 hr of blocking, plates were washed and 100 μl of diluted serum was added to each well and incubated for 2 hr at RT on a shaker. Following three washes, 100 μl A of 0.1 μg/ml chicken polyclonal anti-human C1q antibody (AbCam, Cambridge, Mass.) was added to each well and incubated for 1 hr at RT. Plates were again washed and incubated with 100 μA of a rabbit polyclonal antibody to chicken Ig-Y—HRP diluted 1:4000 (AbCam) for 1 hr at RT. Plates were washed and developed with TMB for 5 min, followed by 50 μA of 1 M H₂SO₄ to stop the reaction, and then read at 450 nm.

T4 sequence (Q9HBE5 20-538 limits assumed): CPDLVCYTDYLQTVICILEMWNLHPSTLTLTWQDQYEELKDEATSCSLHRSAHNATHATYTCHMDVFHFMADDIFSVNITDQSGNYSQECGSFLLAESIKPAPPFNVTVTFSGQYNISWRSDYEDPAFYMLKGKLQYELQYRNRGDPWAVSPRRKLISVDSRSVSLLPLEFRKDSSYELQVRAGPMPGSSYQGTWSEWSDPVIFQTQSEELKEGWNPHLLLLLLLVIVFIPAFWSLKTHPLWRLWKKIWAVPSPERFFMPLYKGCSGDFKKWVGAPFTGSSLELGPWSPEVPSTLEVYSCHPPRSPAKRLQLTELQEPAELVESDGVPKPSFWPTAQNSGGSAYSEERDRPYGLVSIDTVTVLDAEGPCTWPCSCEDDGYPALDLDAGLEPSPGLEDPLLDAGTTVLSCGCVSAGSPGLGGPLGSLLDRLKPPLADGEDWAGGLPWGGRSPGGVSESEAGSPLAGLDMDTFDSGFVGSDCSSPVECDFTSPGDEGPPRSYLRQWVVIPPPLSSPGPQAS
T9 sequence (P02745 23-245, chain 1 of 3): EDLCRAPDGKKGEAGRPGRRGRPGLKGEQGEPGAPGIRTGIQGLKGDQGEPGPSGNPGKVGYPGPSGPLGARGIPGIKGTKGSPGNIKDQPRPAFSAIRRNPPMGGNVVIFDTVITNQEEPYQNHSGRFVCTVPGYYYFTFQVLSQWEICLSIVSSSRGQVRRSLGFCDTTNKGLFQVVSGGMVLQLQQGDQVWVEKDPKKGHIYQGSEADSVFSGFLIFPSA
T9 sequence (P02746 28-253, chain 2 of 3): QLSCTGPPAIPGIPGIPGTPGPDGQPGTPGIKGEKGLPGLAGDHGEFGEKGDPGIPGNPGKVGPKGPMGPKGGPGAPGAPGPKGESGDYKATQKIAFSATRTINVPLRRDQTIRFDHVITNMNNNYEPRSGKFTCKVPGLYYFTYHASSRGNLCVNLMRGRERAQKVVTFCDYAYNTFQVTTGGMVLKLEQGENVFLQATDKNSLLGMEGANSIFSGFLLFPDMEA
T9 sequence (P02747 29-245, chain 3 of 3): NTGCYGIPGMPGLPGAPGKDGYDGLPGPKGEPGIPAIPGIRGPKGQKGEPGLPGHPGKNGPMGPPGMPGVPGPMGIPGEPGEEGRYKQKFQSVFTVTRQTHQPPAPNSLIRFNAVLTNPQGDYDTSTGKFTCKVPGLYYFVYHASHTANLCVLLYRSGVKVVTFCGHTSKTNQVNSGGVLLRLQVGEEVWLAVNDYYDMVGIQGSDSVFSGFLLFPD
T3 sequence (P35225 35-146 limits assumed): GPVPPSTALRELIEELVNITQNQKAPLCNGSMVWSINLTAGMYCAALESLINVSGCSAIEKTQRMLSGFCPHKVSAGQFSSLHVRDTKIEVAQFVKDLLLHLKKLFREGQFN

- binding result (human IL-2Rβ): no binding (tested: 50 nM)
- binding result (human soluble IL-4R): no binding (tested: 50 nM)
- binding result (human IL-13-His/FLAG): no binding (tested: 50 nM)
- A450 (13 nM Ab) [1]: 1.22 A450
- A450 (13 nM Ab) [2]: 1.26 A450
- A450 (13 nM Ab) [3]: 1.27 A450
- A450 (13 nM Ab) [4]: 0.126 A450
- Human IL-21R-BaF3 Proliferation IC50 [5]: 0.65 nM
- Human IL-21R-TF1 Proliferation IC50 [5]: 4.6 nM
- Murine IL-21R-BaF3 Proliferation IC50 [6]: 0.4 nM
- EC50 (read off the curve) [7]: ~0.4 nM
- EC50 (read off the curve) [8]: ~0.3 nM
- EC50 (read off the curve) [9]: ~0.3 nM
- binding result [10]: no binding (tested: 13 nM)
B1: AbJ (antibody, IgG1, V domains shown)
VH: QVQLQESGPGLVKPSETLSLTCAVSGYSISSGYYWGWIRQPPGKGLEWIGSISHTGNTYYNPPLKSRVTISVDTSKNQFSLKLSSVTAADTAVYYCARFMGFGRPEYWGQGTLVTVSS
VL: SSELTQDPAVSVALGQTVRITCQGDSLRTYYASWYQQKPGQAPVLVIYGKHKRPSGIPDRFSGSSSGNTASLTITGAQAEDEADYYCNSRDSSGNPHVLFGGGTQLTVL
notes: As for AbA: IgG1/lambda, CDR3 graft, residue limits derived; also called VH3/VLP

- IC50, rat T cell proliferation, experiment 1 [11]: 159 nM
- IC50, rat T cell proliferation, experiment 2 [11]: 94.7 nM
B2: AbW (antibody, human IgG1, V domains shown)
VH: QVQLQESGPGLVKPSETLSLTCAVSGYSISSGYYWGWIRQPPGKGLEWIGSISHTGNTYYNPPLKSRVTISVDTSKNQFSLKLSSVTAADTAVYYCARFMGFGRPEYWGQGTLVTVSS
VL: SSELTQDPAVSVALGQTVRITCQGDSLRTYYASWYQQKPGQAPVLVIYGKHKRPSGIPDRFSGSSSGNTASLTITGAQAEDEADYYCVTRSVKGNPHVLFGGGTQLTVL

- IC50, rat T cell proliferation, experiment 1 [11]: 70.5 nM
- IC50, rat T cell proliferation, experiment 2 [11]: 59.2 nM
B3: AbV (antibody, human IgG1, V domains shown)
VH: QVQLQESGPGLVKPSETLSLTCAVSGYSISSGYYWGWIRQPPGKGLEWIGSISHTGNTYYNPPLKSRVTISVDTSKNQFSLKLSSVTAADTAVYYCARFMGFGRPEYWGQGTLVTVSS
VL: SSELTQDPAVSVALGQTVRITCQGDSLRTYYASWYQQKPGQAPVLVIYGKHKRPSGIPDRFSGSSSGNTASLTITGAQAEDEADYYCVARSVVGNPHVLFGGGTQLTVL

- Murine IL-21R-BaF3 Neutralization IC50 (murine IL-21): 0.04 nM
B4: murine IL-21R-Fc (Fc fusion, not shown: a dimerising Fc or GST)
chain: not shown

- binding result [12]: binds
B5: 18A5 parent scFv (scFv)
scFv: QVQLQESGPGLVKTSETLSLTCAVSGYSISSGYYWGWIRQPPGKGLEWIGSISHTGNTYYNPPLKSRVTISVDTSKNQFSLKLSSVTAADTAVYYCARGGGISRPEYWGKGTLVTVSSGGGGSGGGGSGGGGSALSSELTQDPPVSVALGQTVTLTCQGDSLRTYYASWYQQKSGQAPILLLYGKHKRPSGIPDRFSGSTSGDTASLTITGAQAEDEADYYCNSRDSSGNPHVLFGGGTQLTVL
notes: scFv format of parental 18A5 (not germlined); different molecule from the 18A5 IgG coated on the plate; also called parental 18A5 scFv; scFv parental clone 18A5

- binding result [13]: no binding
B6: AbX (antibody, human IgG1)
VH: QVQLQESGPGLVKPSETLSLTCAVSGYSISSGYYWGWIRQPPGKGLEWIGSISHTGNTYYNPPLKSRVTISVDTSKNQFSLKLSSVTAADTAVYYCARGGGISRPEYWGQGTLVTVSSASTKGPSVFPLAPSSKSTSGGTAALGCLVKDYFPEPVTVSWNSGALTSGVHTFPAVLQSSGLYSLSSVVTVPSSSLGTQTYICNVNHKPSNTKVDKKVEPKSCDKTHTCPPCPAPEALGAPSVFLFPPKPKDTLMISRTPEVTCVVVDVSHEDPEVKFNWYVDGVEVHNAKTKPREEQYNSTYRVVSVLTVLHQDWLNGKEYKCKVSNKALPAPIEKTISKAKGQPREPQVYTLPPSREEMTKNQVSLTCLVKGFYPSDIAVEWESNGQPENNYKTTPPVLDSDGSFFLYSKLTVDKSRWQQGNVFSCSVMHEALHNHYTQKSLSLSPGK
VL: SSELTQDPAVSVALGQTVRITCQGDSLRTYYASWYQQKPGQAPVLVIYGKHKRPSGIPDRFSGSSSGNTASLTITGAQAEDEADYYCVARSNKGNPHVLFGGGTQLTVLGQPKAAPSVTLFPPSSEELQANKATLVCLISDFYPGAVTVAWKADSSPVKAGVETTTPSKQSNNKYAASSYLSLTPEQWKSHRSYSCQVTHEGSTVEKTVAPTECS
notes: Same variable domains as AbT; residue limits derived as for m29; also called VHPDM/VL9; copies: 2 + 2
